The target in experiment [1] is HIV-1 JRFL envelope glycoprotein gp41 (N-trimer of the prehairpin intermediate) (HIV-1 strain JRFL). Nature of the experiment: cell-based or functional assay.
The target in experiment [2] is HIV-1 HXB2 envelope glycoprotein gp41 (N-trimer of the prehairpin intermediate) (HIV-1 strain HXB2) (UniProt P04578). Nature of the experiment: cell-based or functional assay.

In experiment [1], “C34 (from UniProt P04578 628-661) (peptide)” came in with an IC50, JRFL pseudovirion entry of 13.4 nM. Further, the IC50, HXB2 pseudovirion entry in experiment [2] is 1.4 nM.

Take “C34-PEG80-Chol (from UniProt P04578 628-661) (peptide)”: the IC50, JRFL pseudovirion entry in experiment [1] came to 0.1 nM. The IC50, HXB2 pseudovirion entry in experiment [2] amounted to 0.022 nM.

“C34-PEG11-Chol (from UniProt P04578 628-661) (peptide)” had an IC50, JRFL pseudovirion entry in experiment [1] of 0.024 nM. In experiment [2], the IC50, HXB2 pseudovirion entry amounted to 0.021 nM.

In experiment [1], “C34-PEG2-Chol (from UniProt P04578 628-661) (peptide)” yielded an IC50, JRFL pseudovirion entry of 0.05 nM. This substance also showed an IC50, HXB2 pseudovirion entry in experiment [2] of 0.044 nM.

The values above are taken from US20140323392A1.
